To fix the notation:
B1: CPEB3 Ribozyme (parent)
chain: UAACAGGGGGCCACAGCAGAAGCGUUCACGUCGCAGCCCCUGUCAGAUUCUGGUGAAUCUGCGAAUUCUGCUGUAUAUCUC

The data set covers variants of B1. Briefly: self-cleavage, relative activity (ratio to wild type); higher = more cleavage; in vitro, sequencing. In a few lines:
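Barcoded CPEB3 ribozyme mutants, produced by rounds of error-prone PCR, self-cleaved while being transcribed with T7 RNA polymerase for 5 hours at 37°C and during a subsequent 15 min DNase I step before EDTA was added. Sequencing of template-switched cDNA on Illumina gave cleaved and total reads, and DNA sequencing assigned barcodes to variants. Each variant's relative activity is its cleaved/total read fraction divided by the unmutated ribozyme's fraction, averaged across three batches. A variant needed a minimum of 5 reads.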
UAACAGGGGGCCACAGCAGAAGCGUUCACGUCGUAGCCCCUGUCAAAUUCUGGUGAAUCUGCGAAUUCUGCUGUAUAUCUC: the self-cleavage stood at 0.07. For UAACAGGGGGCCACAGCAGAAGCGUUCACGUCGUAGCCCCUGUCAGAUUCUGGUGAAUCUUCGAAUUCUGCUGUAUAUCUC, the self-cleavage stood at 0.19. For UAACAGGGGGCCACAGCAGAAGCGUUCACGUCGUAGCCCCUGUCAGAUCCUGGUGAAUCUGCGAAUUCUGCUGUAUAUCUC, the self-cleavage came to 0.16. For UAACAGGGGGCCACAGCAGAAGCGUUCACGUCGUAGCCCCUGUCGGAUUCUGGUGAAUCUGCGAAUUCUGCUGUAUAUCUC the value was 0.34. For UAACAGGGGGCCACAGCAGAAGCGUUCACGUCGUAGCCCCUGUCCGAUUCUGGUGAAUCUGCGAAUUCUGCUGUAUAUCUC the value was 0.17; for UAACAGGGGGCCACAGCAGAAGCGUUCACGUCGUAGCCCCUGUCAGAUUCUGGUGAAUCUGCGAAUUCCGCUGUAUAUCUC, 0.35.

With UAACAGGGGGCCACAGCAGAAGCGUUCACGUCGUAGCCCCUGUCAGAUUCUGGUGAAUCUGCGAAUUCAGCUGUAUAUCUC, the self-cleavage worked out at 0.13. Turning to UAACAGGGGGCCACAGCAGAAGCGUUCACGUCGUAGCCCCUGUCAGAUUCUGGUGAAUCUGCGAAUUCUGCGGUAUAUCUC, the self-cleavage turned out to be 0.33. Consider UAACAGGGGGCCACAGCAGAAGCGUUCACGUCGUAGCCCCUGUCAGAUUCUGGUGAAUCUGCGAAUUCUGCCGUAUAUCUC, for which the self-cleavage amounted to 0.63.

With UAACAGGGGGCCACAGCAGAAGCGUUCACGUCGUAGCCCCUGUCAGAUUCUGGUGAAUCUGCGAAUUCUGCAGUAUAUCUC, the self-cleavage amounted to 0.26.

Turning to UAACAGGGGGCCACAGCAGAAGCGUUCACGUCGUAGCCCCUGUCAGAUUCUGGUGAAUCUGCGAAUUCUGCUGUAUAUCUC, the self-cleavage came to 0.35. For UAACAGGGGGCCACAGCAGAAGCGUUCACGUCGGAGCCCCUGUCAGAUUCUGGUGAAUCUGCGAACUCUGCUGUAUAUCUC the value was 0.23; for UAACAGGGGGCCACAGCAGAAGCGUUCACGUCGGAGCCCCUGUCAGAUUCUGGUGAAUCUGCGAAUUCUGCUGUAUAUCCC, 0.24; for UAACAGGGGGCCACAGCAGAAGCGUUCACGUCGUAGCCCCUGUCAGAUUCUGGUGAAUCUGCGAGUUCUGCUGUAUAUCUC, 0.34. For UAACAGGGGGCCACAGCAGAAGCGUUCACGUCGUAGCCCCUGUCAGAUUCUGGAGAAUCUGCGAAUUCUGCUGUAUAUCUC the value was 0.24; for UAACAGGGGGCCACAGCAGAAGCGUUCACGUCGUAGCCCCUGUCAGAUUCUGGCGAAUCUGCGAAUUCUGCUGUAUAUCUC, 0.44.

On to UAACAGGGGGCCACAGCAGAAGCGUUCACGUCGGAGCCCCUGUCAGAUUCUGGUGAAUCUGCGAAUUCUGCGGUAUAUCUC, for which the self-cleavage came to 0.15. Take UAACAGGGGGCCACAGCAGAAGCGUUCACGUCGGAGCCCCUGUCAGAUUCUGGUGAAUCUGCGAAUUCUGCAGUAUAUCUC: the self-cleavage is 0.08.

Regarding UAACAGGGGGCCACAGCAGAAGCGUUCACGUCGGAGCCCCUGUCAGAUUCUGGUGAAUCUGCGAAUUCUGCCGUAUAUCUC, the self-cleavage was found to be 0.22. The value for UAACAGGGGGCCACAGCAGAAGCGUUCACGUCGGAGCCCCCGUCAGAUUCUGGUGAAUCUGCGAAUUCUGCUGUAUAUCUC was 0.14. Take UAACAGGGGGCCACAGCAGAAGCGUUCACGUCGUAGCCCCUGACAGAUUCUGGUGAAUCUGCGAAUUCUGCUGUAUAUCUC: the self-cleavage is 0.51. For UAACAGGGGGCCACAGCAGAAGCGUUCACGUCGUAGCCCCUGCCAGAUUCUGGUGAAUCUGCGAAUUCUGCUGUAUAUCUC the value was 0.22. The value for UAACAGGGGGCCACAGCAGAAGCGUUCACGUCGUAGCCCCUGUCAGAUUCUGGUGAAUCUGCGAAUUCUGAUGUAUAUCUC was 0.13; that for UAACAGGGGGCCACAGCAGAAGCGUUCACGUCGGAGCCCCUGUCAGAUUCUGGUGAAACUGCGAAUUCUGCUGUAUAUCUC was 0.11; that for UAACAGGGGGCCACAGCAGAAGCGUUCACGUCGGAGCCCCUGUCAGAUUCUGGUGAACCUGCGAAUUCUGCUGUAUAUCUC was 0.15. The value for UAACAGGGGGCCACAGCAGAAGCGUUCACGUCGGAGCCCCUGUCAGACUCUGGUGAAUCUGCGAAUUCUGCUGUAUAUCUC was 0.21; that for UAACAGGGGGCCACAGCAGAAGCGUUCACGUCGUAGCCCCUGUCAGAUUCUGGUGAAUCCGCGAAUUCUGCUGUAUAUCUC was 0.11; that for UAACAGGGGGCCACAGCAGAAGCGUUCACGUCGUAGCCCCUGUCAGAUUCUGGUGAAUCAGCGAAUUCUGCUGUAUAUCUC was 0.14. UAACAGGGGGCCACAGCAGAAGCGUUCACGUCGUAGCCCCUGUCAGAUUCUGGUGAAUCUGCGAAUUCUGCUGUGUAUCUC: the self-cleavage was determined as 0.18. For UAACAGGGGGCCACAGCAGAAGCGUUCACGUCGGAGCCCCUGUCAGAUUCUGGUGAAUCUGCCAAUUCUGCUGUAUAUCUC the value was 0.24; for UAACAGGGGGCCACAGCAGAAGCGUUCACGUCGGAGCCCCUGUCAGAUUCCGGUGAAUCUGCGAAUUCUGCUGUAUAUCUC, 0.29. As to UAACAGGGGGCCACAGCAGAAGCGUUCACGUCGGAGCCCCUGUCAGAUUCUGGUGAAUCUGCGAAUUCUGCUGUAUAACUC, the self-cleavage amounted to 0.26. The value for UAACAGGGGGCCACAGCAGAAGCGUUCACGUCGGAGCCCCUGUCAGAUUCUGGUGAAUCUGCGAAUUCUGCUGUAUACCUC was 0.22.

In the case of UAACAGGGGGCCACAGCAGAAGCGUUCACGUCGUAGCCCCUGUCAGACUCUGGUGAAUCUGCGAAUUCUGCUGUAUAUCUC, the self-cleavage came out at 0.47. For UAACAGGGGGCCACAGCAGAAGCGUUCACGUCGUAGCCCCUGUCAGAGUCUGGUGAAUCUGCGAAUUCUGCUGUAUAUCUC, the self-cleavage came out at 0.3. For UAACAGGGGGCCACAGCAGAAGCGUUCACGUCGGAGCCCCUGUCAGAUUCUGGUGAAUCCGCGAAUUCUGCUGUAUAUCUC the value was 0.15; for UAACAGGGGGCCACAGCAGAAGCGUUCACGUCGUAGCCCCUGUCAGAUUCUGGUGAACCUGCGAAUUCUGCUGUAUAUCUC, 0.16. For UAACAGGGGGCCACAGCAGAAGCGUUCACGUCGUAGCCCCUGUCAGAUUCUGGUGAAUCUGCGGAUUCUGCUGUAUAUCUC the value was 0.45; for UAACAGGGGGCCACAGCAGAAGCGUUCACGUCGUAGCCCCUGUCAGAUUCUGGUGAAUCUGCGUAUUCUGCUGUAUAUCUC, 0.13; for UAACAGGGGGCCACAGCAGAAGCGUUCACGUCGGAGCCCCUGUCAGAUACUGGUGAAUCUGCGAAUUCUGCUGUAUAUCUC, 0.24.

In the case of UAACAGGGGGCCACAGCAGAAGCGUUCACGUCGGAGCCCCUGUCAGAUCCUGGUGAAUCUGCGAAUUCUGCUGUAUAUCUC, the self-cleavage turned out to be 0.07. For UAACAGGGGGCCACAGCAGAAGCGUUCACGUCGUAUCCCCUGUCAGAUUCUGGUGAAUCUGCGAAUUCUGCUGUAUAUCUC the value was 0.14; for UAACAGGGGGCCACAGCAGAAGCGUUCACGUCGUUGCCCCUGUCAGAUUCUGGUGAAUCUGCGAAUUCUGCUGUAUAUCUC, 0.27; for UAACAGGGGGCCACAGCAGAAGCGUUCACGUCGUGGCCCCUGUCAGAUUCUGGUGAAUCUGCGAAUUCUGCUGUAUAUCUC, 0.36.

Regarding UAACAGGGGGCCACAGCAGAAGCGUUCACGUCGUAGCCCCUGUAAGAUUCUGGUGAAUCUGCGAAUUCUGCUGUAUAUCUC, the self-cleavage turned out to be 0.38. The value for UAACAGGGGGCCACAGCAGAAGCGUUCACGUCGUAGCCCCUGUCAGAUUCUGGUGAAUCUGCGAACUCUGCUGUAUAUCUC was 0.35; that for UAACAGGGGGCCACAGCAGAAGCGUUCACGUCGGAGCCCCUGUCAGAUUCUGGUGAAUCUGCGAAUUCAGCUGUAUAUCUC was 0.3.

Consider UAACAGGGGGCCACAGCAGAAGCGUUCACGUCGGAGCCCCUGUCAGAUUCUGGUGAAUCUGCGAAUUCCGCUGUAUAUCUC, for which the self-cleavage is 0.21. The value for UAACAGGGGGCCACAGCAGAAGCGUUCACGUCGUAGCCCCGGUCAGAUUCUGGUGAAUCUGCGAAUUCUGCUGUAUAUCUC was 0.12; that for UAACAGGGGGCCACAGCAGAAGCGUUCACGUCGUAGCCCCCGUCAGAUUCUGGUGAAUCUGCGAAUUCUGCUGUAUAUCUC was 0.5.

As to UAACAGGGGGCCACAGCAGAAGCGUUCACGUCGUAGCCCCAGUCAGAUUCUGGUGAAUCUGCGAAUUCUGCUGUAUAUCUC, the self-cleavage stood at 0.4.

Turning to UAACAGGGGGCCACAGCAGAAGCGUUCACGUCGGAGCCCCUGUCAGAUUCUGGUGAAUCUGCGAAUCCUGCUGUAUAUCUC, the self-cleavage worked out at 0.13. The value for UAACAGGGGGCCACAGCAGAAGCGUUCACGUCGUAGCCCCUGUCAGAUUCUGGUGAAUCUGCGAAUUCUACUGUAUAUCUC was 0.14; that for UAACAGGGGGCCACAGCAGAAGCGUUCACGUCGUAGCCCCUGUCAGAUUCUGGUGAAUCUGCGAAUUUUGCUGUAUAUCUC was 0.3; that for UAACAGGGGGCCACAGCAGAAGCGUUCACGUCGUAGCCCCUGUCAGAUUCUUGUGAAUCUGCGAAUUCUGCUGUAUAUCUC was 0.33.

In the case of UAACAGGGGGCCACAGCAGAAGCGUUCACGUCGUAGCCCCUGUCAGAUUCUGGUGAAUCUGCUAAUUCUGCUGUAUAUCUC, the self-cleavage was determined as 0.38.

For UAACAGGGGGCCACAGCAGAAGCGUUCACGUCGUAGCCCCUGUCAGAUUCUGGUGAAUCUGCAAAUUCUGCUGUAUAUCUC, the self-cleavage is 0.27. The value for UAACAGGGGGCCACAGCAGAAGCGUUCACGUCGUAGCCCCUGUCAGGUUCUGGUGAAUCUGCGAAUUCUGCUGUAUAUCUC was 0.43; that for UAACAGGGGGCCACAGCAGAAGCGUUCACGUCGUAGCCCCUGUCAGUUUCUGGUGAAUCUGCGAAUUCUGCUGUAUAUCUC was 0.17. For UAACAGGGGGCCACAGCAGAAGCGUUCACGUCGUAGCCCCUGUCAGCUUCUGGUGAAUCUGCGAAUUCUGCUGUAUAUCUC the value was 0.41; for UAACAGGGGGCCACAGCAGAAGCGUUCACGUCGUAGCCCCUGUCAGAUUCUGGUGAAUCUGCGAAUGCUGCUGUAUAUCUC, 0.12. For UAACAGGGGGCCACAGCAGAAGCGUUCACGUCGUAGCCCCUGUCAGAUUCUGGUGAAUCUGCGAAUCCUGCUGUAUAUCUC the value was 0.12; for UAACAGGGGGCCACAGCAGAAGCGUUCACGUCGUAGCCCCUGUCAGAUUCUGGUGAAUCUGCGAAUACUGCUGUAUAUCUC, 0.42. As for UAACAGGGGGCCACAGCAGAAGCGUUCACGUCGUAGCCCCUGUCAGAUUCUGGUGGAUCUGCGAAUUCUGCUGUAUAUCUC, the self-cleavage was determined as 0.48. For UAACAGGGGGCCACAGCAGAAGCGUUCACGUCGUAGCCCCUGUCAGAUUCUGGUGUAUCUGCGAAUUCUGCUGUAUAUCUC the value was 0.34; for UAACAGGGGGCCACAGCAGAAGCGUUCACGUCGUAGCCCCUGUCAGAUUCAGGUGAAUCUGCGAAUUCUGCUGUAUAUCUC, 0.34. The value for UAACAGGGGGCCACAGCAGAAGCGUUCACGUCGUAGCCCCUGUCAGAUUCGGGUGAAUCUGCGAAUUCUGCUGUAUAUCUC was 0.54; that for UAACAGGGGGCCACAGCAGAAGCGUUCACGUCGGAGCCCCUGUCAGAUUCUGGUGAAUCUGCGAAUUCUGCUGUAGAUCUC was 0.32.

(Values after the RNAGym collection of RNA variant scans (doi:10.1093/nar/gkz1192).)
